{
  "source": "paper PMC11180011",
  "data": [
    {"test_system": "T1, DasR (Streptomyces lincolnensis NBRC_13054), ORF:7245352e", "T1 sequence": "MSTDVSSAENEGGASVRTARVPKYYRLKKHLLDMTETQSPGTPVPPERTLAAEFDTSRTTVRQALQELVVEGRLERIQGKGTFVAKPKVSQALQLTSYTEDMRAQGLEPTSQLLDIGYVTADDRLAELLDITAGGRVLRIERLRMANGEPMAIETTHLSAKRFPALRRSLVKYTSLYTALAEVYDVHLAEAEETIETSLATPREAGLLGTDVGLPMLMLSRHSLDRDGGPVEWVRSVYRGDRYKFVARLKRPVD", "test": "EMSA", "conditions": "EMSA kit, 20 uL, 50 ng/uL Cy5 probe, 6% non-denaturing PAGE; fifth lane with 10 mg/mL salmon sperm DNA; buffer, pH, salt and temperature not given", "values": [
      {"sequence": "AGCCAGTGGCGATAAGATGACTCAAAAGACTCTCCTCACCACACGCGCCACGTAACGGTGGGCACGTGGCGCGCATGACGTTCGTGCAGAAGCAGTTGTCGTTGTGGACGCAGGCACCGGTGGCCCGCTTATTCAGTTGTGAAGTCTGGTTGCGCGACGCGGCGCGCGAAGTCTGTTGCTAGAGCTCTTATCGCCACTGGCT (double strand) [SLINC_6156 promoter]", "binding": "no binding"},
      {"sequence": "AGCCAGTGGCGATAAGATGACATGTCTCACGGGGGACAGTGTGACCCCAGGACCCGCAAGAGGTCTAGTCCACTCACGTGGTGTAGACCTTAGGGCGGCAATATGTATGACCTTTCGAGAGTTTTTCGATCAGTGATCTTGAGGCGGTTGGCAGTGCGGCGGCGTAGGACTTATCGCCACTGGCT (double strand) [nagK promoter]", "binding": "binds"},
      {"sequence": "AGCCAGTGGCGATAAGGGTTCCTGCATATGTAGCTCGTATAACGGCTGGTCAGAGCCGTTCCAGCACTCTTGACAGGTGTATTGGCCTGGTCCAAGCTCCGGGTACTGGTCTACACCATTGGTCCAGGTCCCGGCTCCATGGGCGGGGGGTGTGGGCATCCCTGAGGAGGCTTATCGCCACTGGCT (double strand) [dasA promoter]", "binding": "binds"},
      {"sequence": "AGCCAGTGGCGATAAGTCACTCGGTCTTCCCGTCCGCCGGACCGCCAACCCCTACCTCGCCAGGGCCCTGGGATAGGCCGGCGGGCGGCGCCGCCCGTGACGCGTAGCTGCCCTGGACGAAGGAGGCCACGCGTCGGCCGCGCCACTCCTGCGGGGCGCCCGGGCCGAGCGCGGTGACCGTGCCGGGCTGCGTAGGCTCACAGACATGGCTGAGATCGGGCTGCGTGCTTATCGCCACTGGCT (double strand) [SLINC_3938 promoter]", "binding": "no binding"},
      {"sequence": "AGCCAGTGGCGATAAGAGGGCCTGGATGAGCTGCCTGTCCACCGCGTCCATGCGATCGAAGCCTTCCGATGAAGAGATCCCGAAGTGATGAGAGGTACTGCCCTGTGCCCTGCTGCTCTGTGCCGTGCTGCCCTGTGCCCTACTGCCCTGTGTCCTCTTATCGCCACTGGCT (double strand) [SLINC_4906 promoter]", "binding": "no binding"},
      {"sequence": "AGCCAGTGGCGATAAGACGCACGTACGCAACTCCTTTCGGTTTCCCAGGAGTCACTCCCCGGTCCGGACGGGACATGAACTAATTCAGCTACTTATCGGTCAATCTTGAGCGCGTAGTGCCTTCATGTGGTCGGCAATGCCAGGTTCATGACATTCTCGAATGCTCGGCAATCACAGGCCCTACCGGCGGGGAGGACGCTGGTGGAGTTCGAGATCTTATCGCCACTGGCT (double strand) [SLINC_4481 promoter]", "binding": "no binding"},
      {"sequence": "AGCCAGTGGCGATAAGGCTGGGCCTGCCGTTCTCAAGGGGCTGCACGGGGTGTGTGGTTTAGACCAATCCAGCCTCCAATCTAACAGAACCTCGCCCGGCCTCCCAGGTCTGCCGGGTGTCCCGGAGATGACCGGAAACCCTCGGCGAGGGCACCCCTCGCCCCGCGGTCCCTACGTCAGCGAACTTATCGCCACTGGCT (double strand) [nagB promoter]", "binding": "binds"},
      {"sequence": "AGCCAGTGGCGATAAGATATCCTCTTTCCCCGGGAGAGCCGGTCCCCGTGGTTGTCGCGACGGATGCTGTGGGTCTTCGGCGGGGTGTTCGCCCTCGGTACGGCACTCTTCGCGCTGATTTCCCTCCTGCGGTCGGATTTCCGCCTCTCCGTGGTCGAGATCGGTGCGGTGCTCGCGATCGTGGGACTGCTGACCTGGGCCGCTTCACGCTGCCAGGCCCGAGACACACCGTGTGTACCGAAGCGACTGCCTGGGACGCTACGGGCCGGATGGACTTATCGCCACTGGCT (double strand) [lmrA promoter]", "binding": "no binding"}
    ]}
  ]
}
